Values quoted from earlier work in patent US11173109B2, “Compositions in the form of an injectable aqueous solution comprising amylin, an amylin receptor agonist or an amylin analog and a co-polyamino acid” (ADOCIA, priority 2017, dated 2021).
No end group written: not given here.

Details: neutral pH

For “amylin: peptide of 37 amino acids which is co-stored and co-secreted with insulin (KCNTATCATQRLANFLVHSSNNFGAILSSTNVGSNTY; not fully specified (C-terminus, bridges); cysteine pairing not given here; UniProt P10997 34-70, looked up)”, the “time for which amylin is stable” value is given as “less than one”.
